Substitutions are numbered along the chain they refer to.

Assay in all cases: ELISA
(In an ELISA, binding on a coated surface is turned into a signal by an enzyme label.)

In one assay the target is T1, Peptide 2a.
T1 peptide: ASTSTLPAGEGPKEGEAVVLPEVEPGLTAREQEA

In a further assay the target is T2, Pep6.
T2 peptide: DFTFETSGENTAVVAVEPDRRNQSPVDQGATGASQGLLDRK

The target in assay [1] is T3, recombinant CD138 extracellular domain (soluble CD138) (UniProt P18827 23-250).
T3 chain: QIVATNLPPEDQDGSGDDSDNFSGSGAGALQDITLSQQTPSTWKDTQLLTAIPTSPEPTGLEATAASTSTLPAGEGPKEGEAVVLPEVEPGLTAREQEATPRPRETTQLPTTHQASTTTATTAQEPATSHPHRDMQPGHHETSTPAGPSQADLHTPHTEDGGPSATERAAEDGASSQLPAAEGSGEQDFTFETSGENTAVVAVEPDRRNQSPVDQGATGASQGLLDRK

B1: antibody 1610 (antibody, V domains shown)
VH: QVQLHQPGTSLVKPGASVKLSCKASGYNFSSYYMHWVKQRPGQGLEWIGTIHPSDSTTNCNQKFKGKATLTVDKSSRTAYMQLNSLTFEDSAVYYCANFVYWGQGTSVTVSS
VL: DIVITQDELSNPVTSGDSVSISCRSSKSLLYKDGKTYLNWFLQRPGQSPQLLIYVVSTRASGVSDRFSGSGSGTDFTLEISRVKAEDVGVYYCQQLVEYPYTFGGGTKLEIK
Consider B1, for which the EC50 in the assay with Peptide 2a is 3.9 ng/mL; with Pep6 it was 12.3 ng/mL; in assay [1], 2.7 ng/mL.

B2: antibody 2610 (antibody, V domains shown)
VH: B1 VH with N28S
VL: B1 VL
With B2, the concentration giving a half-maximal response (EC50) was found to be 3.8 ng/mL with Peptide 2a, 4.9 ng/mL with Pep6 and 7 ng/mL in assay [1].

B3: antibody 2510 (antibody, V domains shown)
VH: B1 VH with C60Y
VL: B1 VL
With B3, the half-maximal effective concentration (EC50) in the assay with Peptide 2a came out at 4.6 ng/mL; with Pep6, 8.9 ng/mL; in assay [1], 4.9 ng/mL.

B4: antibody 2810 (antibody, V domains shown)
VH: B1 VH with N28S, C60Y
VL: B1 VL
For the molecule B4, the values for the concentration for a half-maximal effect (EC50) (with Peptide 2a; in the assay with Pep6; in assay [1]) were 2.8 ng/mL, 3.2 ng/mL and 5.3 ng/mL, respectively.

By EC50 is commonly meant the concentration giving half of the maximal effect.
